Experimental data as given in the domain aggregation screens of Martell et al. (2025).

Experiment: soluble fraction after stress (log2 fold change); higher = more stays soluble; pooled small domains, quantitative proteomics
Conditions: stress: 75 degC
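Further: 20 min heating vs room temperature control held 20 min.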

HMALKSYEDMVGKTGVAYTVLRPSGKVIINDELFDATARSGMIEKGNEVIIYDYKNAQLIVEK
soluble fraction (log2): 0.263

HMALPASLSPREREIVSLISQGKTNSEIASLLYISVPTVKTHISNIFQKTGVSNRTSLLNRLRMS
soluble fraction (log2): -0.996

HMALPHEIKQKWLEEIMTMLRSSDSVTINKVYLHFPENKSHWVDEILTDLSNTHMITRQHDFIRLKN
soluble fraction (log2): -0.964

HMALQDKYKQLVDTATASGVANLQVREQDGVLYIDGEAPSGSVKDQLWDIYGKIDPNFLSGDVVMNINV
soluble fraction (log2): -0.148

HMALQLPFSFAKRHKVLVESAHEPVKVYHTPSTDFAVFAEVRRFLDQTFVLEEIAENRFEELLTSSFQRD
soluble fraction (log2): -1.1

HMALSETIYRLRTEHGLSQGDLAAELDVSRQSISKWETGSSVPELDKLVAMSRLFGVSLDELVLGE
soluble fraction (log2): -0.85

HMALSLPDDMTIVRKDGSSLEVRLKSRTVTEIHFERISDSETFQFSIDQLDETTRELVEQYPVM
soluble fraction (log2): -0.31

HMALTAEVLRSLIKHHGLGQSIQRTAKAVGLSASTVKKYFDRIAAANLTWQEAKSRTQEELIASLQPT
soluble fraction (log2): -0.813

HMALTARDLGLTHRQADVLHLVLQGKPVKLIARDLGLAEGTVKSHVSAVLRALNVTTRTQAIVAAGRLGLM
soluble fraction (log2): -2.18

HMAMDITLPLAEVRRQSLEQIERQYLNELMSKHLGRINRAAEAAGITTRQLHKLLTKYSIRKEDFK
soluble fraction (log2): -1.25

HMAMESDELETLVDQLIVDHPDEWSRFVGGDDGDRKKMQGFFTGQIMKATKGQADGRAVAQLLGQKSA
soluble fraction (log2): 0.0717

HMAMLSKREAEILKLTAKGHSSTDIAQRLTISVNTVEFHRRRIMQKLNAANVAEAVGKAAELGLFF
soluble fraction (log2): -2.47

HMAMSAGEVVERIREHVGHPATIKELMRVLAIPNEERYRFRRRIKQLVEAGELIRIRGNRYGLADR
soluble fraction (log2): -2.83

HMAMTITKIEKTSQQKIYYFTDSGRVFKKMSDRSATIAVDDRVELEGGVLGSKFFVTANGSRVKVKEV
soluble fraction (log2): -2.9

HMAMYSREKLKKLREDRGLTQYELAKIAGISVVTLNKIESSDSAKPFVKTLNKIAQALGVGIDELS
soluble fraction (log2): -1.77

HMAMYYVIGGDGQQYGPIDEATVRGWLGEGRVSAASLSFKTGEAQWIPLRDRPELADVLATA
soluble fraction (log2): -0.137

HMANKLSEQIYGSILKDIVNGVYAPREFISEAQIAAKYGVSKAPVKEAMHILASEGFLLSYPKRGYMVN
soluble fraction (log2): -0.889

HMANKQLQEKLKNYISENGSLSSAAKAIGLSPATLSTYLKDKYEGNVANVETRLTEIFETVEAANNLL
soluble fraction (log2): -0.353

HMANKTISMTTLKLVIQQLSKGISRQSISAQYHISRNTIKKYEKRIKAMDMKIEDILKLSDEEISNLLQ
soluble fraction (log2): -3

HMANLNFDMSQIVASRYQEKAAELGVTAPSLARTDYNTQEQATYEFVAREIIADYYDDRVAPFNDLIPE
soluble fraction (log2): -0.191

HMANNPISMIKIRQILRLHIQGRSKLQIAAQTGISRNTLKKYLKEFEASKLTYDEISELSDKDLEDLFIK
soluble fraction (log2): -2.86

HMANTSAVIKQPGLVKLFAQHFVRNGFNAMKAAEAAGFVRPSPTFVRNLADSKPVKDAISELLGPYNDA
soluble fraction (log2): -0.183

HMANWRVGQTINALVSDRMPSGGLLLTVGRQSFVTTRDIPVQPGARIMLEVQQVEPKLVLRLVSA
soluble fraction (log2): -1.8

HMAPADLSPEERVVLDALALEPVHVDALAAKLGRRSEELLTSLTLMEMRGLAVAHAGSRYSRATMT
soluble fraction (log2): -0.14

HMAPEEIPLDRVVRLVEQGRVESIVVTGERLEVTLQNGTVYGSTKENGVGFMETLDRYQVPLEQRDFSYEV
soluble fraction (log2): -0.148

HMAPELRSDAQMRRLWALAKENGLDEVGFRAFISDATGREVESTKSLTATEAHRLIEELEAP
soluble fraction (log2): -0.0689

HMAPEPFIVQITASSLNVRKGPGTSYAVAQTVSKGQVFTIVQQQGGWGKLKSGAGWISLKYTAR
soluble fraction (log2): -1.74

HMAPEQWYVLTSGQLPKGPYRLRHIVAMSKGDNWLVARKGAEQWTPLRHLPEFRQAQEANEYIQAIS
soluble fraction (log2): -1.48

HMAPFSGVEPREWDSLVERGRQSGEVHAEDVTHVLRHVELTGDVLTDVQSKMAEHGITIDDA
soluble fraction (log2): 0.161

HMAPGASEVPDLTSLPAREALLRLTKLGLLPEMEGTGRLVRQQPAAGTRVPKGSKVHLVFEPG
soluble fraction (log2): 0.123

HMAPIEVPYNVFRQQVVEGNVESVATRADTVQGYFETPVTLPARPDAAAAEPVTVERFSTTLPSF
soluble fraction (log2): 0.27

HMAPKRIVLRFGKDISDKPIIYYLVKDYDLVINILKANVNPNKEGTLVLELSGENYDKGIEFLISQGVTVQ
soluble fraction (log2): -1.8

HMAPKVHLLKVPVDKIREIIGTGGKVIRQITEETGAKIDISDDGSVKVSSPDQSSIDAATTWITGIIAE
soluble fraction (log2): -0.0092

HMAPLATLEAGEDGSVKLPNLAGHSIREVAAALGGAKLSLIPIGSGTSWKQTPAPGAVLHSGDTVTVYF
soluble fraction (log2): 0.243

HMAPNDELTRQVISVLSGTPQQAFNYKQISKKLNINDSSERRMVSNILRELAGKGEIVEVYQGKYRSKAPA
soluble fraction (log2): -0.0901

HMAPPTAEFFAHLPAEALSAVRRSVEEGNARGIDEAILRVETLDGEAGRVLRGLAARYEYGRILELTQR
soluble fraction (log2): 0.103

HMAPQSAAAILRYLSSGAIRGVGPATAQRIVERFGTDSLEIIQNRPKELAAINGISINKALSISEEYAKQY
soluble fraction (log2): -0.741

HMAPREELIAIHEALDKLEREDPQVSQLVKLRYFVGMTMAEAADAMDLKKRAAEALWTYGKAWLHREIKKN
soluble fraction (log2): -3.24

HMAPRIVTIQIPVDKIRDVIGPGGKVIRSIIERTGVKIDVEDDGRVNVASADGDSAQRAIAIIQELTAT
soluble fraction (log2): -0.101

HMAPSIPSGADIRAAREAAGINLRDFARIVDGPGIAIWSRYETGTPIRVKSISPEVWQKVRDFISQHG
soluble fraction (log2): -0.801

HMAPTADSVPFVIRSVVGGAQPFIVLEDGSKLLVGGVYRKYRLVAVENTRIIFEGPRTAIVT
soluble fraction (log2): -1.51

HMAPTPAGNLRSLKSEIVNYTRQSSTAYVYTFKDLSSGELYTARASRYYAAAGDTAYISTAAGAITDM
soluble fraction (log2): 0.121

HMAPTVPEVVRLEEGAARSAIEAAGLSVGSVEFRASSDPAGTVLATRPIAGRKVRPSSAVDLVLSDGRTP
soluble fraction (log2): 0.166

HMAPVEEWAKASVMEDPTLVTETMARIFAQQGQIGKARKAYRHLALTYPAKSTYFAAQLKKLNQR
soluble fraction (log2): -0.473

HMAPVLTATVNTTSGKLNMRAAASATSAKLTSIPRGATVTVLEKGTTWSRISYGGYTGYVMTQYLKFD
soluble fraction (log2): -0.523

HMAPVVELEDVTIVRGKATLLDRVNWVIDETDRWVIVGPNGAGKTTLLQVVSANLHPTSGKAMILDEVL
soluble fraction (log2): 0.176

HMAQILEPSVALKKLLELKQAGFEDETLVGWIRKVEFTRPLTPDDLLEWKGAGISQAVIRAAM
soluble fraction (log2): -0.302

HMAQISDEGLLRGLIVEMFEANPAVVEELLGGRDRKKGFVIGQIMKKTKGMANPALLDQLFYEELEKL
soluble fraction (log2): -1.1

HMAQTEIPYSEFLREVGNGQIKSVIIEGSEITGFYKTSGTSFNVVAPDDPKLVERLMDQGVEVRAQPT
soluble fraction (log2): 0.176

HMAQVVMPNVVGKTEKDATATLEGKNLKVNVEYNLDATSDDGIVKEQSIKSGENIDEGTEITLKVNKV
soluble fraction (log2): -2.27

HMAQWGFNGSEAGDLSFQQGDVIEVVEKVKDDWWRGRVLGSTEIGLFPS
soluble fraction (log2): -0.309

HMARDDVIRLVQLSLDHLPAKYADALEWKYVEGLSTKEIAARLELGSEAAESLLARARRAFKNDFQEIFES
soluble fraction (log2): -1.42

HMAREFPGTIIKRGSRGPDVRWIQQHIGVKLVDGVFGRGTERAVKQFQSRRRLKADGIVGRQTWAAIHN
soluble fraction (log2): -1.16

HMARGATELPYSQLLDRVEAGEITTATTQGNTLLSTARDGKRYITYLPLDTMDEVVPRLDAANVEVKTER
soluble fraction (log2): 0.103

HMARGLRPVPSVFGLDVRQATRTLYAAGFQVSIARGSDVRTRPAAGTLLRVGSTVQLEMPRMESA
soluble fraction (log2): -2.2

HMARGTRTRAKLLAAAEVVFARYGYTEASIERITEEAGVGQGTFYLYFASKLEIFEELVDDLNR
soluble fraction (log2): -2.88

HMARLEELSNGSIVEGLLSGEAVTVVSTKWYGSSSMEVFYKTNRGSTGSQILYREDEPSLTVLEKS
soluble fraction (log2): -0.831

HMARPLHVDALIHLGTEIGSRVGGAHAGPHLLVAGHSPMSELVYARLLGIPTLGWMRGQLTFVNLSK
soluble fraction (log2): 0.0485

HMARSKSRQSSVLESVPGLGPSRRRNLLRHFGGLQGVVKAGVEDLMAVRGISRTLAETVYDHLHPGS
soluble fraction (log2): -0.735

HMARTIINLPLRNSVDESYNTTVNILQANGFKEVSYNGETVWKKGTGLLTAMQYIKIEFTDTTLVVSGWVQ
soluble fraction (log2): ≥ 1.04

HMARTLSVTVSENYANMRLDSFLFESGLYPSRSKAVKQIESGKVFVNGNEPTKKTIVVANDFIVYEEYAEE
soluble fraction (log2): -2.63

HMARTTIATPWDKINDLLQGGLGNGDFGLIFGNPGGGKSWSLVALGGFAVKLGYNVIHYTLE
soluble fraction (log2): -0.0148

HMASAEDDLTRRARKLLTTSSMLKTLQPDTGERLQWLPQVVRLLAEGVEAPRIVVLIRRAMESG
soluble fraction (log2): -1.26

HMASALDFGRYVRSQYSLQEFPLILIAPLNDPHPKEVVRELFNLYLTKPITRSRLFDSLMTVLG
soluble fraction (log2): -0.74

HMASDQGAGALREVSAFFEKHGRVPDPDAVDHDEMRLGSIWASIKSAPTDQMRLEDRFGLLD
soluble fraction (log2): 0.135

HMASDYYTTTANLNLRSGAGTTYGSLIIIEKGDTVKLLENVNDHWVKIQYDDKIGYVAMSYLLPIE
soluble fraction (log2): -1.31

HMASEKSEQLYQQMKLDIAGMPPDTRLPSIRALMRSYSVSQLLIDRTLGRLREEGALRKRFDGLYTYL
soluble fraction (log2): -2.42

HMASELQQVQALLESQRYNEALILIETTIGKGASESTELLFARADVFASSGRHDEAEQAYREL
soluble fraction (log2): -0.145

HMASELVSADEKYSGLVSYLLGRVVVVDQIDHAIALAKKYRYSLRIVTLDGELLSPGGSMTGGAFKNS
soluble fraction (log2): 0.169

HMASEVEVPNVYGMPSSLAERELSAVGLLADYRSRTGTGQQPGTVVHVKPDAGTVVSRGSTVVLFIA
soluble fraction (log2): -0.334

HMASFASRAEEVMTKLLANGQPRIKEVADAMHLSSRTLQRRLEREGVSFAELLDRLRKRLAHDMLAHS
soluble fraction (log2): -1.51

HMASFGDLSGLKRTYPPQGLPDASRIADFLIARNEGDLSVEQVKALERFLFEHPDHERTARLVAATRVPA
soluble fraction (log2): -0.0446

HMASFTDAQALEVKDLYPDWSKIPEGTHLEAGQRVRYNGNLYKVRTGQAHDKQSTWTPTDAASLFEAID
soluble fraction (log2): 0.185

HMASIEPLKTSIRIIWYINGEKDSETLLNTPPTAANKANAQKIADMVEQQIQMGIFNRDAVFPSSPKRQ
soluble fraction (log2): -1.75

HMASIGVGTIVRVANAVNYNGVKVKAWFNDEGYEVTELSGDRAVLKHNGDLFDAFHVSDLEA
soluble fraction (log2): -1.42

HMASINRIENKNGKVVYRIIVSLGYDKQGKKLKKTITYNVNQTATKKQQENEALKYALDIEDKIKNGHD
soluble fraction (log2): -1.99

HMASITLDQAKEIALTHAGQTADAVWFEKAEQDYDDGILVYELEFAAKGTEYEYEIDAQTGAIREYKWDD
soluble fraction (log2): 0.238
